B1: e05 (ssRNA)
RNA: GGGAAUUCGAGCUCGGUACCCUUCGAACGGCCCUGGUUGUUGGUUUUAAUUCAUUUAUCCGCGUGGUCACGGUCGUAGCAAGCUCUGCAGUCG
modifications: 2'-F on all pyrimidines (C and U) [positions count without the 20-nt 5-prime fixed region]

What was measured:
[1] = test system: DBL1alpha-His (PfEMP1 Duffy binding-like domain 1alpha, strain FCR3S1.2) (Plasmodium falciparum); assay: pulldown; conditions: 2'-F on all pyrimidines (C and U) [positions count without the 20-nt 5-prime fixed region], 40 nM RNA, 350-400 nM protein, Ni-NTA beads, PBSM, yeast RNA, 37 C, RNA assayed as 90 nt with 2x20 nt flanks
[2] = test system: PfEMP1 on FCR3S1.2-infected erythrocytes (Plasmodium falciparum); assay: cell_activity; conditions: 2'-F on all pyrimidines (C and U) [positions count without the 20-nt 5-prime fixed region]; rosette rate about 35% of control at 258 nM; 1 mM MgCl2
[3] = test system: GST-DBL1alpha (PfEMP1 DBL1alpha) (Plasmodium falciparum); assay: competition; conditions: 2'-F on all pyrimidines (C and U) [positions count without the 20-nt 5-prime fixed region], 30-fold molar excess unlabelled RNA
[4] = molecular target: BSA (UniProt P02769 P02769:25-607); assay: EMSA; 10 ug BSA negative control; conditions: label: 32P; complex secondary structure predicted by mfold
Sequence of BSA (P02769 25-607, one chain of several): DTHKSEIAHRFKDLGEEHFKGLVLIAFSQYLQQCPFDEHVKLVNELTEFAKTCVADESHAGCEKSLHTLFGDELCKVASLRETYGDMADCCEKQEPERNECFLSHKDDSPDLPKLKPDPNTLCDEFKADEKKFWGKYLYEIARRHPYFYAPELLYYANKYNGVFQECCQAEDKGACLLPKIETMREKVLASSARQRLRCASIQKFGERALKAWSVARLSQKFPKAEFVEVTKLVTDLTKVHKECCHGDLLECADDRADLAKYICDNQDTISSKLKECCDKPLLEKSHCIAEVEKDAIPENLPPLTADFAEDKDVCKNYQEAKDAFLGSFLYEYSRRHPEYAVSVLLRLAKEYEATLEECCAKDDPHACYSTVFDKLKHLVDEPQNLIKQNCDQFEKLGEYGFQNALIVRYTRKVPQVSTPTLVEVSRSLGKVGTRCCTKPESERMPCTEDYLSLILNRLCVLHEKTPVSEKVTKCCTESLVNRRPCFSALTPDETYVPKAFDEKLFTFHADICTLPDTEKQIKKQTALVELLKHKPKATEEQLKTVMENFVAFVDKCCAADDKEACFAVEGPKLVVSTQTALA
Experimental: To study RNA/DBL1α^His interaction in solution a number of EMSA experiments were conducted. The protein used for these experiments was freshly eluted from the Ni-NTA beads to avoid long storage and freezing in solution to prevent precipitation of DBL1α^His The RNA was internally labelled with ³²P-ATP and migration after incubation with DBL1α^His or BSA was analysed on 10% native polyacrylamide gel. The upper band (177 nucleotide long RNA) seen in FIG. 4 is an incorrect product of the T7 transcription that is derived from a longer transcription template. This template is a product generated in the previous PCR reaction (binding of PCR primer to en external T7 site in the TOPO-vector). […] Throughout the EMSA experiments conducted, no real band shift was observed (RNA molecule bound to protein with slower migration).
FIG. 5. Mobility shift assay of selected clone e05. ˜30 ng internal ³²P-[αATP] labelled RNA was incubated with ˜300-400 ng DBL1α^His for 10 min. and loaded on 10% TBE-buffered PAA gel (+) together with negative control (−) incubated in the presence of 10 μg BSA.

Row | Molecule | binding signal (% RNA recovery) ([1]; clone also listed as SEQ 6/12) | activity (nM (complete rosette disruption)) [2] | binding signal (% decrease of labelled RNA recovery) [3] | binding signal (% RNA recovery) ([1]; clone also listed as SEQ 5/11) | binding signal (% RNA recovery) ([1]; clone also listed as SEQ 4/10) | binding signal (% decrease of labelled RNA recovery) ([3]; 60% decrease at 45-fold, no decrease with 30-fold e02 or pool 0) | binding result [4]
1 | GGGAAUUCGAGCUCGGUACCCUUCGAACGGCCCUGGUUGUUGGUUUUAAUUCAUUUAUCCGCGUGGUCACGGUCGUAGCAAGCUCUGCAGUCG [e05] | 70 | 387 | 40 |  |  |  | 
2 | GGGAAUUCGAGCUCGGUACCUCAUGUGCCAGUGUUUGAAAAAACGCGUUGAUUGCUGGUGUGGUGAGCUAGUCGUAGCAAGCUCUGCAGUCG |  | 387 | 40 | 70 |  |  | 
3 | GGGAAUUCGAGCUCGGUACCUGCCAACCUUCGAUGCAAGAUAAUACUUUUGAUGGUGUAGUCGUAUUGUUCGUAGCAAGCUCUGCAGUCG [d12] |  | 387 |  |  | 70 | 40 | 
4 | B1 |  |  |  |  |  |  | no binding
